# Results: patent US20070202045A1 (published 2007)
# Bridges are numbered along the chain shown (N, C = ends).
# Biological target: T1, rabbit albumin (rabbit, UniProt P49065 25-608)
# T1 chain: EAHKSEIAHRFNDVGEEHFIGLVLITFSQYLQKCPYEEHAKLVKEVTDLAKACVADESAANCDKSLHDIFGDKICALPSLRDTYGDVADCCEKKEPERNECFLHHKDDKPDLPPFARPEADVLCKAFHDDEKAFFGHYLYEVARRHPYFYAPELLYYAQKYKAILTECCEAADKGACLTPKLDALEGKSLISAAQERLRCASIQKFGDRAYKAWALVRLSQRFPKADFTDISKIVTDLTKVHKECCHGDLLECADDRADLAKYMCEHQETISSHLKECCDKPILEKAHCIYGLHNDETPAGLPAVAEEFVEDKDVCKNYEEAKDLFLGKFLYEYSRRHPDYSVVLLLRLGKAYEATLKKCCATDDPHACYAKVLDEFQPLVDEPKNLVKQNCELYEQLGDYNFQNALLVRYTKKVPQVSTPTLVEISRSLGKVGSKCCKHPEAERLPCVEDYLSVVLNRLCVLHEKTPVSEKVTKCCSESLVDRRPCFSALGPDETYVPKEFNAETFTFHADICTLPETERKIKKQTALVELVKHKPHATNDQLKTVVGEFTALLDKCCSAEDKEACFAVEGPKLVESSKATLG
# Experiment: competition ELISA (SA08b binding to rabbit albumin)
binder,measurement,value
Ac-QGLIGDICLPRWGCLWGDSVK-NH2 (disulfide 8-14 (inferred)) [SA08],IC50,33 nM
